These results are taken from patent publication US20250235501A1, “Methods and Compositions for Treating or Preventing Neurological Injury or Neurological Disorders” (University of Connecticut, priority 2024, published 2025).

For the assay, the target named is T1, NMDARs (Rattus norvegicus, UniProt Q00959+Q00960).
T1 construct: TRPM2 plasmid a gift 17928; 17924; 17925; host or cells: HEK293T
The assay is described as follows: NMDAR currents in HEK-293T cells transfected with NMDARs and TRPM2 (whole cell recording). Format: cell-based, human. The note with it: 10 μM peptide overnight; 10 μM NMDA, -80 mV. How it is done: FIGS. 5G and 5H show the effects of TAT-EE3 on NMDAR currents in HEK-293T cells transfected with NMDARs and TRPM2. Transfected cells were treated with 10 μM TAT-EE3 or TAT-SC for overnight. FIG. 5G is representative NMDAR currents elicited at −80 mV by exposing to 10 μM NMDA for about 2 to 4 s.
were ordered from GenScript Biotech, and dissolved in PBS to make a stock concentration at 10 mM. HEK-293T cells or isolated neurons were treated with TAT-SC or TAT-EE3 at a concentration of 10 μM for at least 8 h prior to use. Mice were injected with TAT-SC or TAT-EE3 intraperitoneally (ip) at a dose of 100 nmol/kg.
Whole cell currents were recorded using an Axopatch 200B amplifier. Data were digitized at 10 or 20 kHz and digitally filtered offline at 1 kHz. Patch electrodes were pulled from borosilicate glass and fire-polished to a resistance of ˜3 MΩ when filled with internal solutions. Series resistance (Rs) was compensated up to 90% to reduce series resistance errors to <5 mV. Cells in which Rs was >10 MΩ were discarded (Du, J., Xie, J., and Yue, L. (2009). Modulation of TRPM2 by acidic pH and the underlying mechanisms for pH sensitivity. J Gen Physiol 134, 471-88).
For heterologous expression, transfected HEK-293 cells were identified by GFP fluorescence. […]

T1 sequence (Q00959 23-1464, other chains not shown): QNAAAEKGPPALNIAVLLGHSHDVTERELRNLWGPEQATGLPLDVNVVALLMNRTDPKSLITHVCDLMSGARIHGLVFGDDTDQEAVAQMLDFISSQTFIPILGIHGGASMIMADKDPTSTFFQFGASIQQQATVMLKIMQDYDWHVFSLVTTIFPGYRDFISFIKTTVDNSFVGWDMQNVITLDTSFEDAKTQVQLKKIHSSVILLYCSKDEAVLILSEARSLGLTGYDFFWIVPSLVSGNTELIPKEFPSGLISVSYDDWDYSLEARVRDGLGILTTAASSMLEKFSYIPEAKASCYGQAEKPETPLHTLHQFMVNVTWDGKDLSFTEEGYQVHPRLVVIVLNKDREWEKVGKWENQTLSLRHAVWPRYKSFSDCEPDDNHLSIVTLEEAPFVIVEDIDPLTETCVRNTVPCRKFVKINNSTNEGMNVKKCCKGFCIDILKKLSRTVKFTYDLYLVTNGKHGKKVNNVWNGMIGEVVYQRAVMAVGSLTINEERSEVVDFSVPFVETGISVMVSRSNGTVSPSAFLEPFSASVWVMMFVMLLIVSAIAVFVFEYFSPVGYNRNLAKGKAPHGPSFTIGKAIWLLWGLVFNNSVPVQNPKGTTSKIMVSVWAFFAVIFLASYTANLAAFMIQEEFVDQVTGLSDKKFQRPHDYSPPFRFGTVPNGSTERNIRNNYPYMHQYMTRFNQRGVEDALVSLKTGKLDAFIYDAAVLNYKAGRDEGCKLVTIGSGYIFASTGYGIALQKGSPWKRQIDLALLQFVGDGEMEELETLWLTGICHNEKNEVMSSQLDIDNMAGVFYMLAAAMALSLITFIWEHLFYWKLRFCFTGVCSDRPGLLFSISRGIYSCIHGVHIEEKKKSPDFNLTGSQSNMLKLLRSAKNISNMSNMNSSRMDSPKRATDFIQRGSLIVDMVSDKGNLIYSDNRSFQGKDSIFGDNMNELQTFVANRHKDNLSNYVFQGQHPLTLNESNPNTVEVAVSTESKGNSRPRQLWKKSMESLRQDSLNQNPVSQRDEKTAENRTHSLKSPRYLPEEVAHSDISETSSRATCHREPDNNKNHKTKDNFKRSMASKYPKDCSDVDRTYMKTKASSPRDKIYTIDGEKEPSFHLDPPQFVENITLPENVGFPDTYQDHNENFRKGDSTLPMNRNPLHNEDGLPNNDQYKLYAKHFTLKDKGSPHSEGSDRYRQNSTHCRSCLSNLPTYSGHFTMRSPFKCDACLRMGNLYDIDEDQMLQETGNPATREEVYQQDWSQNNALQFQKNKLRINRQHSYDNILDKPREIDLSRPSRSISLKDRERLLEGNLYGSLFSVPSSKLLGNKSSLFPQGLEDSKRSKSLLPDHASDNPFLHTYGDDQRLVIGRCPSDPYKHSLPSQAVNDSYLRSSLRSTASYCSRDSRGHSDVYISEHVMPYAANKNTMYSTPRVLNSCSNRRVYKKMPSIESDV
T1 sequence (Q00960 27-1482, other chains not shown): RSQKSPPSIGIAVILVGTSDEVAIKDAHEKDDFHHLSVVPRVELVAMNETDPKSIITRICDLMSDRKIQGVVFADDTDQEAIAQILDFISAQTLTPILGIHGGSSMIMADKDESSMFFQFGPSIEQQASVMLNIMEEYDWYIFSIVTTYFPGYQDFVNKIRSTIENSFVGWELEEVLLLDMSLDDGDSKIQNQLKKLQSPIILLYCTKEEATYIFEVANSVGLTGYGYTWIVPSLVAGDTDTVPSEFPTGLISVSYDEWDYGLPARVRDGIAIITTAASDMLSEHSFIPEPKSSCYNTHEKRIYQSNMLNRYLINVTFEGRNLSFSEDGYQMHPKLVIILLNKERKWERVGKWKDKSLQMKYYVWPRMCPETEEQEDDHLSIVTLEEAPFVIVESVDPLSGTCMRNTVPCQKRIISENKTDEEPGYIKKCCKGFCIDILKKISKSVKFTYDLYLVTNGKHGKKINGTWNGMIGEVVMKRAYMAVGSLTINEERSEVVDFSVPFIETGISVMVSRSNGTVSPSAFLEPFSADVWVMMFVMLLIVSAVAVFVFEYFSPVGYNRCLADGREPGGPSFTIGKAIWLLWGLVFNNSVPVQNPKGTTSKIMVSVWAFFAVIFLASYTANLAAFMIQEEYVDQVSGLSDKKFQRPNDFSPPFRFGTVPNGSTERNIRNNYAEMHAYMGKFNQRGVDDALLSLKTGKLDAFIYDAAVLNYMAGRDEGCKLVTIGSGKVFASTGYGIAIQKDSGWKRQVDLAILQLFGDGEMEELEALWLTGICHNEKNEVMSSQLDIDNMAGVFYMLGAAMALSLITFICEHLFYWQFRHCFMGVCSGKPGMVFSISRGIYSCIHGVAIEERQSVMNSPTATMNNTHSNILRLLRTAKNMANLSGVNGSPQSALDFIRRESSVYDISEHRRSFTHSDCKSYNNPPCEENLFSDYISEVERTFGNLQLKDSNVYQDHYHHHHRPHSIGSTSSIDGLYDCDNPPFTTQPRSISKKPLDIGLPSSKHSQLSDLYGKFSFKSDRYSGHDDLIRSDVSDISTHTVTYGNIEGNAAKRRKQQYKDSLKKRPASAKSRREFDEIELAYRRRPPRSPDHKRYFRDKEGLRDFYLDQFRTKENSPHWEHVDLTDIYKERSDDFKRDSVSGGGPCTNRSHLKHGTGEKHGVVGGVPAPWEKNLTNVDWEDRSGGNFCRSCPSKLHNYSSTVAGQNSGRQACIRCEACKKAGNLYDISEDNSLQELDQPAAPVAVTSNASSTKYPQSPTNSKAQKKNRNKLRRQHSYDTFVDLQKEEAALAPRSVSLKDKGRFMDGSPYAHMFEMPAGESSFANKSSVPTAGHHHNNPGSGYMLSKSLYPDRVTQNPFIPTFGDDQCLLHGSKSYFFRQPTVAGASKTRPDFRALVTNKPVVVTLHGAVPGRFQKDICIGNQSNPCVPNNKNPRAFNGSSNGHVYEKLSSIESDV

Turning to “TAT-EE3: membrane permeable disrupting peptide, sequence YGRKKRRQRRREEDTDSSEEMLALAEE (SEQ ID NO: 4)”, the NMDAR current amplitude result is recorded as “significantly smaller than that in cells treated with TAT-SC”.
